{"source": "patent US20230295273A1", "about": "(published 2023)", "molecules": {"B1": {"name": "HCMV gHgLgO trimer (soluble region, wild-type gO) (other)", "chain 1": "[…]", "chain 2": "VAVSVAPTAAEKVPAECPELTRRCLLGEVFQGDKYESWLRPLVNVTGRNGPLSQLIRYRPVTPEAANSVLLDDAFLDTLALLYNNPDQLRALLTLLSSDTAPRWMTVMRGYSECGDGSPAVYTCVDDLCRGYDLTRLSYGRSIFTEHVLGFELVPPSLFNVVVAIRNEATRTNRAVRLPVSTAAAPEGITLFYGLYNAVKEFCLRHQLDPPLLRHLDKYYAGLPPELKQTRVNLPAHSRYGPQAVDAR", "chain 3": "[…]", "notes": "Expressed in Expi293 cells; gH, gL and gO are disulfide-linked; also called HCMV trimer; gHgLgO complex; not shown: C-terminal Myc-Avi-His tag; C-terminal Twin-Strep-tag"}, "B2": {"name": "HCMV gHgLgO trimer with charge mutations at gO (M84R, F111R, R117E, F136R, R212E, R230E, R234E, R336E, F342E, A351R, N358R) (other)", "chain 1": "[…]", "chain 2": "B1 chain 2", "chain 3": "[…]", "notes": "also called Trimermut; TrimerMUT; not shown: C-terminal Myc-Avi-His tag; C-terminal Twin-Strep-tag"}}, "key": {"[1]": {"target": "PDGFRα-Fc Site 3 mutant (E208N, S210S as printed) (human) (UniProt P16234)", "sequence (P16234 24-528, stated change not applied)": "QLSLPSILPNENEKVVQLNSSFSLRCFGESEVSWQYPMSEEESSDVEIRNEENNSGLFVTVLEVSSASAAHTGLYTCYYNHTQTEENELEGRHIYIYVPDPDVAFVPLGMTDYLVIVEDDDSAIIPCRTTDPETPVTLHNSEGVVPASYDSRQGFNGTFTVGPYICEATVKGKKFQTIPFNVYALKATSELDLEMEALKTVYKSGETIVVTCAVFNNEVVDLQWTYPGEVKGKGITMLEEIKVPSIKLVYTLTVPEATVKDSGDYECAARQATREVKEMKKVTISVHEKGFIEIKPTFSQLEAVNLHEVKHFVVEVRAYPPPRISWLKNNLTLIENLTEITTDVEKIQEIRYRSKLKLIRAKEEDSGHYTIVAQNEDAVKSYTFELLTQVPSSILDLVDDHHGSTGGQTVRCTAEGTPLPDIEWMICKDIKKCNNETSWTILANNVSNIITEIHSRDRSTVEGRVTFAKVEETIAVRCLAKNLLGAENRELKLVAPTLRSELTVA", "experiment": "BLI (Octet Red); PDGFRα-Fc captured on anti-human Fc sensors, trimer as soluble analyte"}, "[2]": {"target": "T1, PDGFRα-Fc Site 2 mutant (E108N, N110S) (human, UniProt P16234 24-528)", "T1 construct": "range 1-528; Mutations meant to introduce an N-linked glycosylation site; not shown: C-terminal human IgG1 (Fc) tag", "T1 sequence (P16234 24-528 E108N/N110S limits assumed, form in doubt)": "as the sequence (P16234 24-528, stated change not applied) above, with E85N, N87S counted along it", "experiment": "BLI (Octet Red); PDGFRα-Fc captured on anti-human Fc sensors, trimer as soluble analyte"}, "[3]": {"target": "T2, PDGFRα-Fc Site 1 mutant (E52N, E54S) (human, UniProt P16234 24-528)", "T2 construct": "range 1-528; Mutations meant to introduce an N-linked glycosylation site; not shown: C-terminal human IgG1 (Fc) tag", "T2 sequence (P16234 24-528 E52N/E54S limits assumed, form in doubt)": "as the sequence (P16234 24-528, stated change not applied) above, with E29N, E31S counted along it", "experiment": "BLI (Octet Red); PDGFRα-Fc captured on anti-human Fc sensors, trimer as soluble analyte"}, "[4]": {"target": "T3, PDGFRα-Fc Site 4 mutant (E263N, K265S) (human, UniProt P16234 24-528)", "T3 construct": "range 1-528; Mutations meant to introduce an N-linked glycosylation site; not shown: C-terminal human IgG1 (Fc) tag", "T3 sequence (P16234 24-528 E263N/K265S limits assumed, form in doubt)": "as the sequence (P16234 24-528, stated change not applied) above, with E240N, K242S counted along it", "experiment": "BLI (Octet Red); PDGFRα-Fc captured on anti-human Fc sensors, trimer as soluble analyte"}, "[5]": {"target": "T4, PDGFRα-Fc wild type (human PDGFRα (1-528) with C-terminal human IgG1 Fc tag) (human, UniProt P16234 24-528)", "T4 construct": "range 1-528; also called WT; PDGFRα WT; not shown: C-terminal human IgG1 (Fc) tag", "T4 sequence (P16234 24-528 limits assumed, form in doubt)": "as the sequence (P16234 24-528, stated change not applied) above", "experiment": "BLI (Octet Red); PDGFRα-Fc captured on anti-human Fc sensors, trimer as soluble analyte"}, "[6]": {"target": "T4, PDGFRα-Fc wild type (human PDGFRα …)", "experiment": "BLI with PDGFRα-Fc (FIG. 7D)"}}}
{"molecule": "HCMV gHgLgO trimer (soluble region, wild-type gO) (from UniProt P12824 24-716; Q68672 31-278)", "values": [{"measurement": "Kd", "setting": "[1]", "result": 21.5, "unit": "nM"}]}
{"molecule": "B1", "values": [{"measurement": "Kd", "setting": "[2]", "result": 2.7, "unit": "nM"}, {"measurement": "Kd", "setting": "[3]", "result": 16.5, "unit": "nM"}, {"measurement": "Kd", "setting": "[4]", "result": 4.65, "unit": "nM"}, {"measurement": "Kd", "setting": "[5]", "result": 2.25, "unit": "nM"}]}
{"molecule": "B2", "values": [{"measurement": "Kd", "setting": "[6]", "result": 42.5, "unit": "µM"}, {"measurement": "fold reduction of binding against Trimer-WT", "setting": "[6]", "result": "~10000", "unit": "times"}]}
